Assay results as given in patent publication US6805863B2, “Methods of modulating immune coagulation” (Trillium Therapeutics Inc., priority 1997, dated 2004).
Several values for one entry are separate records, joined by “and”; a condition that tells them apart may be missing. Equal entries are not always repeated. Marks after values point to notes of the source that are not given here.

Legend:
DBA/2-mated CBA/J mice = assay: Fetal loss in DBA/2-mated CBA/J mice: role of asialoGM1+ NK cells, macrophages and cytokines; assay type: in vivo, mouse
Text: Inbred mice of strains CBA/J and DBA/2 were obtained from Iffa Credo. France C57B1/6J and DBA/2 mice were obtained from the Jackson Laboratories, Bar Harbor, Me. C57B1/6 mice with knockout of the interferon response element IRF-1 were generated as previously described (Duncan, G. S. et al., J. Exp. Med. 184:2043 (1996)) and bred in at the Ontario Cancer Institute, Toronto. CBA/J mice were maintained in the Paris colony under conventional open-top wire cage conditions with food and water ad lib and a 12 hour light-dark cycle. Mice in the Toronto colony were maintained in a barrier facility. Female CBA/J, C57B1/6 or C57B1/6 IRF−/− mice were mated by overnight cohabitation with a DBA/2J male, and the morning of sighting a vaginal plug was defined as day 0.5 of pregnancy.
Pregnant CBA/J mice were depleted of NK cells by injection of 1 ml rabbit IgG anti-asialoGM1 antibody (Immunocorp, Richmond, Va.) ip on day 6.5 of gestation; phosphate buffered saline (PBS) was used as a control as it has been previously shown to be equivalent to non-immune rabbit IgG (Clark, D. A., Crit. Rev. Immunol. 11:215 (1991)). Macrophage depletion was performed by ip injection of 100 mg/kg silicon dioxide twice a week for 4 weeks prior to mating, as described in Baek, H-S. and J-W. Yoon (J. Virol. 64:5708 (1990)). Affinity-purified rabbit IgG neutralizing antibody to mouse procoagulant (fg12-prothombinase) was prepared as previously described (Ding, J. W. et al., J. Exp. Med. (1997); Dackiw, A. P. B. et al., Arch. Surg. 131:1273 (1996)); the mice were given a ip injection of 200 μl of a 1/50 dilution of a 5.5 mg/ml preparation of anti-prothombinase or control rabbit antibody each day beginning on day 3.5 of gestation. Hormonal support of pregnancy sufficient to replace ovarian function was provided in some experiments by injecting 6.7 ng 17 β-estradiol+1 mg progesterone in 0.1 ml oil im daily beginning on day 4.5 of gestation (Michael, S. D. et al., Biol. Reprod. 12:400 (1975)). One hundred […] of rat monoclonal IgG2b anti-mouse granulocyte antibody RB6-8C5 (Pharmingen) (Stoppacciaro, A. et al., J. Exp. Med. 178:151 (1993)) or isotype control was injected ip on either day 6.5 or on day 8.5 of pregnancy. TNF-α (6 and R&D Systems) 1000 or 2000 units and/or murine recombinant γ-interferon (6 and R&D Systems) 1000 units was injected ip on day 7.5 of pregnancy. On day 13.5 of pregnancy, the mice were sacrificed and the number of resorbing and healthy embryos was counted. In some experiments, the uteri were snap frozen, 5 micron sections were cut, and the tissues were stained with rat monoclonal F4/80 antibody (Caltag, Tebu, France) to macrophages. Briefly, tissue sections were incubated with a 1/30 dilution of F4/80 in PBS for 30 minutes, and binding was detected using peroxidase-streptavidin with biotin-labelled anti-rat IgG2b second antibody (Secrotec) (Kachkache, M. et al., Biol. Reprod. 45:860 (1991)).
Four to ten mated mice per treatment group were used. The significance of differences in the pooled resorption rate was tested by c^2 of Fisher's Exact test where appropriate.

[1] = system: recalcified platelet-poor normal human plasma; assay: One-stage clotting assay (procoagulant activity, PCA); assay type: biochemical
Method: This assay for fg12 prothrombinase was used to directly measure procoagulant activity. High 5 cells infected with recombinant virus expressing the mfg12 fusion protein were subjected to cycles of freeze thawing. They were then assayed for their ability to accelerate the spontaneous clotting time of recalcified platelet-poor normal human plasma as previously described (Levy & Edgington, 1980). Results were quantitated by comparison with serial dilutions of standard rabbit brain thromboplastin. Activities from cells infected with the recombinant virus were compared with those uninfected and wild-type virus infected, and with the purified protein alone. Proteins involved in the coagulation pathway require a phospholipid bilayer for functional activity; therefore purified protein was reconstituted into […] to determine their PCA activity. Additional PCA assays were performed with human plasma deficient in coagulation factors II, V, VII, VIII, X, and XII to determine the nature (factor dependence) of the expressed PCA.

125I-prothrombin = assay: Prothrombin cleavage assay; assay type: biochemical; details: FIG. 22
Method: To determine if the expressed fusion protein acts as a direct prothrombinase, the prothrombin cleavage assay was performed as previously described (Schwartz et al., 1982). 125I-prothrombin was incubated with High 5 cells, both infected or uninfected with the recombinant virus. Purified mfg12 fusion protein was also studied to determine its ability to cleave prothrombin. Human Factor Xa in the presence of Russell's viper venom (RVV) was used as a positive control. Samples were run on 10% SDS-PAGE and analyzed by autoradiography for 125I-prothrombin and their cleavage products.

[2] = Expt 1, anti-asialoGM1 pretreated (NK depleted) mice, 1000 u day 7.5
[3] = Expt 1, anti-asialoGM1 pretreated (NK depleted) mice, 2000 u day 7.5
[4] = Expt 1, day 6.5 PBS, 1000 u ip day 7.5, day 13.5 assay
[5] = Expt 1, day 6.5 PBS, 2000 u ip day 7.5, day 13.5 assay
[6] = Table 9, 20 ng added to H5 cells + RV
[7] = Table 9, 100 ng added to H5 cells + RV
[8] = Table 9, 3 μg reconstituted into H5 cells
[9] = Table 9, purified protein 3 μg alone
[10] = Expt 2, anti-asialoGM1 pretreated (NK depleted) mice, 1000 u IFN-γ, TNF-α 1000 u or 2000 u pooled
[11] = Expt 2, day 6.5 PBS, 1000 u IFN-γ, TNF-α 1000 u or 2000 u pooled, day 7.5

Question: How did the “% fetal losses” value (DBA/2-mated CBA/J mice; [2]) turn out when TNF-α was run?
Answer: The value was 16%^e.

Question: What about the resorptions/total (DBA/2-mated CBA/J mice; [2]) of the same molecule?
Answer: Its resorptions/total is 12/63.

Question: And the “% fetal losses” value (DBA/2-mated CBA/J mice; [3])?
Answer: Its value is 22%^e.

Question: What about the resorptions/total (DBA/2-mated CBA/J mice; [3]) of the same molecule?
Answer: The resorptions/total was 12/55.

Question: And the “% fetal losses” value (DBA/2-mated CBA/J mice; [4])?
Answer: Its value is 72%^b.

Question: And the resorptions/total (DBA/2-mated CBA/J mice; [4])?
Answer: The resorptions/total was 43/60.

Question: And the “% fetal losses” value (DBA/2-mated CBA/J mice; [5])?
Answer: Its value is 89%^c.

Question: What about the resorptions/total (DBA/2-mated CBA/J mice; [5]) of the same molecule?
Answer: Its resorptions/total is 57/64.

B1: Purified protein: purified murine fg12 fusion protein with six histidine residues and an enterokinase site at the N-terminus, baculovirus expressed (protein)
chain: VEEHNLTEGLEDASAQAACPARLEGSGRCEGSQCPFQLTLPTLTIQLPRQLGSMEEVLKEVRTLKEAVDSLKKSCQDCKLQADDHRDPGGNGGNGAETAEDSRVQELESQVNKLSSELKNAKDQIQGLQGRLETLHLVNMNNIENYVDNKVANLTVVVNSLDGKCSKCPSQEHMQSQPVQHLIYKDCSDHYVLGRRSSGAYRVTPDHRNSSFEVYCDMETMGGGWTVLQARLDGSTNFTREWKDYKAGFGNLEREFWLGNDKIHLLTKSKEMILRIDLEDFNGLTLYALYDQFYVANEFLKYRLHIGNYNGTAGDALRFSRHYNHDLRFFTTPDRDNDRYPSGNCGLYYSSGWWFDSCLSANLNGKYYHQKYKGVRNGIFWGTWPGINQAQPGGYKSSFKQAKMMIRPKNFKP
modifications: left off: small tags and cut ends
notes: purified murine fg12 fusion protein with six histidine residues and an enterokinase site at the N-terminus, baculovirus expressed
Question: For B1, which PCA ([1]; Table 7, purified protein 3 μg, uninfected High 5 cells <1) is on record?
Answer: The PCA was less than 1 Miliunits/2 × 10^6 cells.

Question: What about the “PCA Time” value ([1]; Table 7, purified protein 3 μg, uninfected High 5 cells >240) of the same molecule?
Answer: Its value is 220 s.

Question: What about the “PCA Milliunits” value [1, 6] of the same molecule?
Answer: Its value is 1254 mU/2 × 10^6 cells.

Question: And the “PCA Time” value [1, 6]?
Answer: Its value is 57 s.

Question: What about the “PCA Milliunits” value [1, 7] of the same molecule?
Answer: Its value is 1543 mU/2 × 10^6 cells.

Question: What about the “PCA Time” value [1, 7] of the same molecule?
Answer: Its value is 54 s.

Question: What about the “PCA Time” value ([1]; Table 9, 3 μg added to H5 cells + RV (printed for two lines)) of the same molecule?
Answer: Its value is 50 s and 34 s.

Question: What about the “PCA Milliunits” value [1, 8] of the same molecule?
Answer: Its value is 3634 mU/2 × 10^6 cells.

Question: And the “PCA Time” value [1, 8]?
Answer: Its value is 42 s.

Question: And the “PCA Milliunits” value [1, 9]?
Answer: The value was less than 1 mU/2 × 10^6 cells.

Question: And the “PCA Time” value [1, 9]?
Answer: Its value is 220 s.

Question: What about the “PCA after reconstitution of purified protein into insect cells” value ([1]; preliminary results) of the same molecule?
Answer: The value was “partial PCA activity recovery”.

Question: And the PCA detected ([1]; purified soluble protein alone)?
Answer: The PCA detected was “no activity”.

Question: And the “prevention of PCA expression by cells infected with recombinant virus” value ([1]; soluble mfg12 protein added to cell lysate)?
Answer: The value was “incapable of preventing the clotting induced by the cell lysate”.

Question: What about the “cleavage of 125I-prothrombin (SDS-PAGE autoradiography)” value (125I-prothrombin) of the same molecule?
Answer: The value was “no prothrombin cleavage”.

B2: IFN-γ: murine recombinant γ-interferon (protein, UniProt P01580 23-155, looked up)
Interferon gamma: HGTVIESLESLNNYFNSSGIDVEEKSLFLDIWRNWQKDGDMKILQSQIISFYLRLFEVLKDNQAISNNISVIESHLITTFFSNSKAKKDAFMSIAKFEVNNPQVQRQAFNELIRVVHQLLPESSLRKRKRSRC
Question: How did the “% fetal losses” value (DBA/2-mated CBA/J mice; [10]) turn out when B2 was run?
Answer: The value was 12%^e.

Question: What about the resorptions/total (DBA/2-mated CBA/J mice; [10]) of the same molecule?
Answer: The resorptions/total was 12/98.

Question: What about the “% fetal losses” value (DBA/2-mated CBA/J mice; [11]) of the same molecule?
Answer: The value was 85%^g.

Question: What about the resorptions/total (DBA/2-mated CBA/J mice; [11]) of the same molecule?
Answer: Its resorptions/total is 79/93.
